The supplement of paper PMC9112550, “Optimization of the antimicrobial peptide Bac7 by deep mutational scanning” (BMC Biology, 2022)

System: Escherichia coli TOP10
Assay: shrunken log2 fold change of peptide-encoding DNA abundance (4.5 h post-induction vs induction); higher = less antimicrobial activity (less host growth inhibition)
Details: time post-induction: 4.5 h; library: site-saturation at positions 5, 18, 19, 20
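Also: peptides expressed intracellularly from a pBAD plasmid library in pooled LB shake-flask culture, induced with 0.3% L-arabinose, DNA abundance read by NGS, three biological replicates, DESeq2 with apeglm shrinkage.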

Row | Sequence | shrunken log2 fold change
1 | RRIRVRPPRLPRPRPRPSIMPRP | -0.451
2 | RRIRNRPPRLPRPRPRPRCHPRP | -0.572
3 | RRIRWRPPRLPRPRPRPVDFPRP | 0.0271
4 | RRIRHRPPRLPRPRPRPLHSPRP | -0.151
5 | RRIRTRPPRLPRPRPRPLIGPRP | -0.413
6 | RRIRCRPPRLPRPRPRPYMVPRP | -0.462
7 | RRIRYRPPRLPRPRPRPVIQPRP | -0.607
8 | RRIRIRPPRLPRPRPRPYEWPRP | -0.00783
9 | RRIRHRPPRLPRPRPRPRIFPRP | -0.121
10 | RRIRWRPPRLPRPRPRPSIAPRP | 0.0837
11 | RRIRIRPPRLPRPRPRPLQQPRP | -0.293
12 | RRIRCRPPRLPRPRPRPRDFPRP | 0.0317
13 | RRIRSRPPRLPRPRPRPFVRPRP | 0.0631
14 | RRIRSRPPRLPRPRPRPPWWPRP | 0.828
15 | RRIRIRPPRLPRPRPRPNPWPRP | -0.119
16 | RRIRRRPPRLPRPRPRPCMHPRP | 0.105
17 | RRIRSRPPRLPRPRPRPYDTPRP | -0.532
18 | RRIRKRPPRLPRPRPRPADYPRP | -0.0391
19 | RRIRFRPPRLPRPRPRPDCGPRP | -0.107
20 | RRIRCRPPRLPRPRPRPNQAPRP | -0.146
21 | RRIRMRPPRLPRPRPRPISRPRP | 0.074
22 | RRIRARPPRLPRPRPRPPTFPRP | 0.158
23 | RRIRRRPPRLPRPRPRPVQKPRP | 0.223
24 | RRIRMRPPRLPRPRPRPPNSPRP | 0.128
25 | RRIRERPPRLPRPRPRPAKCPRP | -0.237

Row | Sequence | shrunken log2 fold change
26 | RRIRQRPPRLPRPRPRPHQYPRP | -0.237
27 | RRIRARPPRLPRPRPRPCQCPRP | 0.0726
28 | RRIRGRPPRLPRPRPRPKMPPRP | 0.434
29 | RRIRRRPPRLPRPRPRPFACPRP | 0.152
30 | RRIRPRPPRLPRPRPRPYWPPRP | -0.143
31 | RRIRERPPRLPRPRPRPPHTPRP | -0.152
32 | RRIRHRPPRLPRPRPRPNLQPRP | -0.0526
33 | RRIRWRPPRLPRPRPRPCEAPRP | 0.471
34 | RRIRLRPPRLPRPRPRPEFIPRP | 0.0915
35 | RRIRHRPPRLPRPRPRPVVDPRP | -0.109
36 | RRIRNRPPRLPRPRPRPFWVPRP | 0.0863
37 | RRIRNRPPRLPRPRPRPENSPRP | -0.00522
38 | RRIRGRPPRLPRPRPRPLPQPRP | 0.927
39 | RRIRCRPPRLPRPRPRPAERPRP | -0.109
40 | RRIRFRPPRLPRPRPRPVCLPRP | -0.121
41 | RRIRPRPPRLPRPRPRPLDYPRP | -0.495
42 | RRIRQRPPRLPRPRPRPSEHPRP | -0.195
43 | RRIRWRPPRLPRPRPRPYHQPRP | -0.0735
44 | RRIRSRPPRLPRPRPRPRQVPRP | 0.109
45 | RRIRYRPPRLPRPRPRPSMQPRP | -0.288
46 | RRIRARPPRLPRPRPRPMEQPRP | 0.0309
47 | RRIRQRPPRLPRPRPRPPLCPRP | 0.28
48 | RRIRPRPPRLPRPRPRPYSIPRP | -0.0708
49 | RRIRERPPRLPRPRPRPSNCPRP | -0.0637
50 | RRIRDRPPRLPRPRPRPMEAPRP | -0.0266

Row | Sequence | shrunken log2 fold change
51 | RRIRERPPRLPRPRPRPHQDPRP | -0.0312
52 | RRIRLRPPRLPRPRPRPENGPRP | -0.108
53 | RRIRPRPPRLPRPRPRPKTQPRP | -0.02
54 | RRIRSRPPRLPRPRPRPQNIPRP | -0.657
55 | RRIRMRPPRLPRPRPRPLRHPRP | 1.98
56 | RRIRPRPPRLPRPRPRPWASPRP | 0.0361
57 | RRIRCRPPRLPRPRPRPFVYPRP | -0.526
58 | RRIRQRPPRLPRPRPRPALAPRP | 0.73
59 | RRIRFRPPRLPRPRPRPACCPRP | 0.229
60 | RRIRLRPPRLPRPRPRPDHFPRP | 0.0304
61 | RRIRNRPPRLPRPRPRPPEEPRP | -0.032
62 | RRIRIRPPRLPRPRPRPEIFPRP | -0.0951
63 | RRIRRRPPRLPRPRPRPGPTPRP | 0.678
64 | RRIRSRPPRLPRPRPRPCSKPRP | -0.234
65 | RRIRLRPPRLPRPRPRPSAGPRP | -0.0364
66 | RRIRTRPPRLPRPRPRPCGMPRP | -0.0074
67 | RRIRSRPPRLPRPRPRPGTGPRP | 0.103
68 | RRIRERPPRLPRPRPRPLTDPRP | -0.394
69 | RRIRYRPPRLPRPRPRPKAPPRP | 0.291
70 | RRIRSRPPRLPRPRPRPHQWPRP | -0.144
71 | RRIRLRPPRLPRPRPRPMAIPRP | 0.11
72 | RRIRARPPRLPRPRPRPCWSPRP | -0.142
73 | RRIRKRPPRLPRPRPRPMWYPRP | 0.0551
74 | RRIRQRPPRLPRPRPRPCPTPRP | -0.13
75 | RRIRCRPPRLPRPRPRPEYLPRP | -0.258

Row | Sequence | shrunken log2 fold change
76 | RRIRQRPPRLPRPRPRPQHDPRP | -0.477
77 | RRIRHRPPRLPRPRPRPQTKPRP | -0.0667
78 | RRIRFRPPRLPRPRPRPCGCPRP | -0.0484
79 | RRIRFRPPRLPRPRPRPKMQPRP | -0.0373
80 | RRIRCRPPRLPRPRPRPIRPPRP | -0.0704
81 | RRIRYRPPRLPRPRPRPVENPRP | -0.0898
82 | RRIRMRPPRLPRPRPRPRDPPRP | 0.705
83 | RRIRKRPPRLPRPRPRPHKAPRP | -0.0179
84 | RRIRNRPPRLPRPRPRPHDSPRP | -0.0662
85 | RRIRARPPRLPRPRPRPAHCPRP | 0.433
86 | RRIRPRPPRLPRPRPRPKLCPRP | -0.0437
87 | RRIRERPPRLPRPRPRPYWCPRP | -1.14
88 | RRIRARPPRLPRPRPRPRSMPRP | 0.42
89 | RRIRVRPPRLPRPRPRPRLLPRP | 0.0401
90 | RRIRCRPPRLPRPRPRPTTVPRP | -0.356
91 | RRIRSRPPRLPRPRPRPLSMPRP | -0.115
92 | RRIRPRPPRLPRPRPRPLTAPRP | 0.212
93 | RRIRNRPPRLPRPRPRPWLKPRP | -0.0113
94 | RRIRNRPPRLPRPRPRPYWSPRP | -0.195
95 | RRIRGRPPRLPRPRPRPSGTPRP | 0.913
96 | RRIRSRPPRLPRPRPRPQMPPRP | 0.189
97 | RRIRCRPPRLPRPRPRPKYSPRP | -0.898
98 | RRIRMRPPRLPRPRPRPTMSPRP | -0.148
99 | RRIRNRPPRLPRPRPRPNQMPRP | -0.153
100 | RRIRHRPPRLPRPRPRPFPAPRP | -0.405

Row | Sequence | shrunken log2 fold change
101 | RRIRERPPRLPRPRPRPHWAPRP | 0.225
102 | RRIRIRPPRLPRPRPRPHKLPRP | -0.552
103 | RRIRLRPPRLPRPRPRPGFDPRP | 0.137
104 | RRIRNRPPRLPRPRPRPKWWPRP | 0.0325
105 | RRIRPRPPRLPRPRPRPMHDPRP | -0.0561
106 | RRIRPRPPRLPRPRPRPCWRPRP | 0.00714
107 | RRIRIRPPRLPRPRPRPPPSPRP | 0.399
108 | RRIRNRPPRLPRPRPRPWLQPRP | -0.0113
109 | RRIRCRPPRLPRPRPRPPDRPRP | 0.394
110 | RRIRIRPPRLPRPRPRPWMGPRP | -0.185
111 | RRIRDRPPRLPRPRPRPQQDPRP | 0.0798
112 | RRIRDRPPRLPRPRPRPSRAPRP | 0.156
113 | RRIRMRPPRLPRPRPRPKFMPRP | 0.0431
114 | RRIRGRPPRLPRPRPRPRLLPRP | 0.908
115 | RRIRARPPRLPRPRPRPQCWPRP | 0.173
116 | RRIRMRPPRLPRPRPRPYPNPRP | -0.021
117 | RRIRPRPPRLPRPRPRPGHGPRP | 0.296
118 | RRIRSRPPRLPRPRPRPWKGPRP | -0.0267
119 | RRIRNRPPRLPRPRPRPNSYPRP | -0.299
120 | RRIRDRPPRLPRPRPRPPIPPRP | -0.0554
121 | RRIRERPPRLPRPRPRPCWEPRP | -0.0225
122 | RRIRLRPPRLPRPRPRPPMAPRP | 0.0265
123 | RRIRSRPPRLPRPRPRPWGAPRP | 0.0522
124 | RRIRNRPPRLPRPRPRPEASPRP | 0.0343
125 | RRIRERPPRLPRPRPRPGFEPRP | -0.1
